Test [1] deals with T1, human Tamm-Horsfall protein (human, UniProt P07911 25-587). Put plainly: competitive ELISA; light chains bound in the wells, Tamm-Horsfall protein in solution, linear peptide as inhibitor. The source says: (§1) Peptides known to react with the Tamm-Horsfall protein in the yeast two-hybrid assay were synthesized, cyclized, and used as inhibitors in a competitive ELISA experiment. The peptides were cyclized by adding cysteine residues to the amino and carboxyl-terminal portions of the peptides and generating an intramolecular disulfide bridge (FIG. 4). Cyclization facilitates formation of the loop structure in solution. Both the linear and cyclized peptides inhibited the binding of the Tamm-Horsfall protein to the immunoglobulin light chains bound in the wells of the microtiter plate, but the efficiency of inhibition was increased by cyclization of the peptide inhibitor.
(In general: In an ELISA, binding on a coated surface is turned into a signal by an enzyme label.)

Test [2] has as its target T1, human Tamm-Horsfall protein. Description: competitive ELISA; light chains bound in the wells, Tamm-Horsfall protein in solution, cyclized peptide as inhibitor.
Excerpt: as §1

Test [3] shares this target. Put plainly: competitive ELISA (FIG. 7). An excerpt: Mutation of the CDR3 sequence to disrupt the loop structure by substituting amino acid residues with phenyalanine confirmed that the secondary structure was an important determinant of binding (FIG. 6). The inhibitory capability of cyclized experimental ([…] (SEQ ID NO:32)) and control ([…] (SEQ ID NO:33)) peptides were then compared in a competitive ELISA assay. The experimental peptide served as a very efficient inhibitor of the binding interactions between the human Tamm-Horsfall protein and six different human immunoglobulin light chains (FIG. 7).

Test [4] shares this target. Put plainly: competition studies for binding to Tamm-Horsfall protein.

Bridges are numbered along the chain shown (N, C = ends). Where no end group is shown, it is not given here.

B1: peptide 1 (QSYDNTLSGSYVF (SEQ ID NO:1)), linear (peptide)
peptide: QSYDNTLSGSYVF
notes: also called uncyclized peptide 1
The IC50 is the midpoint of a concentration-inhibition curve. In test [1], B1 registered an IC50 of 55 nM.

B2: peptide 2 (LSADSSGSYLYVF (SEQ ID NO:2)), linear (peptide)
peptide: LSADSSGSYLYVF
notes: also called uncyclized peptide 2
Regarding B2, the IC50 in test [1] turned out to be 90.9 nM.

B3: peptide 2 (LSADSSGSYLYVF (SEQ ID NO:2)), cyclized (peptide)
peptide: CLSADSSGSYLYVFC
modifications: disulfide 1-15
notes: Built from the words 'cyclized by adding cysteine residues to the amino and carboxyl-terminal portions of the peptides'; also called cyclized peptide 2
Consider B3, for which, in test [2], the IC50 was 24 nM.

B4: cyclized peptide (CLSADSSGSYLYVC) (SEQ ID NO:32) (peptide)
peptide: CLSADSSGSYLYVC
modifications: disulfide 1-14
notes: also called cyclized experimental peptide; experimental peptide
B4: the binding result in test [3] is on record as “binds”.

B5: synthetic peptide (MQGTHWPPLT (SEQ ID NO:3)) identical to the CDR3 region of SSH23 (peptide)
peptide: MQGTHWPPLT
notes: also called SSH23 CDR3 peptide
B5: the binding result in test [4] was “binds”.

These data come from US20130129714A1 (UAB RESEARCH FOUNDATION, published 2013).
